Like-named read-outs stand apart in the source and are kept apart here.
Assay: Ex vivo biodistribution of 177Lu-labeled peptide tetramers in H2009 xenografted SCID mice
Details: CB17 SCID, mouse, iv, total radioactivity; for tissue uptake at 1.5 h / tissue to tissue ratio at 1.5 h: 90 min p.i.; for tissue uptake at 24 h / tissue to tissue ratio at 24 h: 154 pmol, 24 h p.i.; for tissue uptake at 72 h / tissue to tissue ratio at 72 h: 199 pmol, 3 d p.i.
Outline: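 SCID mice carried subcutaneous H2009 xenografts on the right shoulder. 177Lu-labeled conjugates were injected i.v., and ex vivo organ distribution was measured at two time points post-injection.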

[1] = small intestine (empty), H2009 bearing SCID mice, read-out: Small intestine (empty) %IA/g
[2] = spleen, H2009 bearing SCID mice, read-out: Spleen %IA/g
[3] = stomach (empty), H2009 bearing SCID mice, read-out: Stomach (empty) %IA/g
[4] = tumor/pancreas, H2009 bearing SCID mice, read-out: tumor/organ ratio, Pancreas

What does the source list for `CC(C)C[C@@H]1NC(=O)[C@H](CC(=O)O)NC(=O)CNC(=O)[C@H](CCCNC(=N)N)NC(=O)[C@H](Cc2ccc(O)cc2)NC(=O)[C@H](CCCCNC(=O)CCc2cn(CCCNC(=O)CCP(=O)(O)CN3CCN(CP(=O)(O)CCC(=O)NCCCn4cc(CCC(=O)NCCCC[C@H]5C(=O)N[C@@H](Cc6ccc(O)cc6)C(=O)N[C@@H](CCCNC(=N)N)C(=O)NCC(=O)N[C@@H](CC(=O)O)C(=O)N[C@@H](CC(C)C)C(=O)N[C@@H](C)C(=O)N[C@@H](Cc6ccc(O)cc6)C(=O)N6CCC[C@@H]6C(=O)N5C)nn4)CCN(CP(=O)(O)CCC(=O)NCCCn4cc(CCC(=O)NCCCC[C@H]5C(=O)N[C@@H](Cc6ccc(O)cc6)C(=O)N[C@@H](CCCNC(=N)N)C(=O)NCC(=O)N[C@@H](CC(=O)O)C(=O)N[C@@H](CC(C)C)C(=O)N[C@@H](C)C(=O)N[C@@H](Cc6ccc(O)cc6)C(=O)N6CCC[C@@H]6C(=O)N5C)nn4)CCN(CP(=O)(O)CCC(=O)NCCCn4cc(CCC(=O)NCCCC[C@H]5C(=O)N[C@@H](Cc6ccc(O)cc6)C(=O)N[C@@H](CCCNC(=N)N)C(=O)NCC(=O)N[C@@H](CC(=O)O)C(=O)N[C@@H](CC(C)C)C(=O)N[C@@H](C)C(=O)N[C@@H](Cc6ccc(O)cc6)C(=O)N6CCC[C@@H]6C(=O)N5C)nn4)CC3)nn2)N(C)C(=O)[C@H]2CCCN2C(=O)[C@H](Cc2ccc(O)cc2)NC(=O)[C@H](C)NC1=O` [Compound 177Lu-Y8, metal not drawn]?
tissue uptake at 1.5 h (small intestine (empty), 124 pmol, H2009 bearing SCID mice, read-out: Small intestine (empty) %IA/g): 3 %ID/g; tissue uptake at 24 h [1]: 1.03 %ID/g; tissue uptake at 72 h [1]: 0.16 %ID/g; tissue uptake at 1.5 h (small intestine (empty), + 50 nmol non-labeled compound 10 min prior to activity, n = 2, read-out: Small intestine (empty) %IA/g, + 50 nmol cold): 0.62 %ID/g; tissue uptake at 1.5 h (spleen, 124 pmol, H2009 bearing SCID mice, read-out: Spleen %IA/g): 8.41 %ID/g; tissue uptake at 24 h [2]: 1.89 %ID/g; tissue uptake at 72 h [2]: 2.01 %ID/g; tissue uptake at 1.5 h (spleen, + 50 nmol non-labeled compound 10 min prior to activity, n = 2, read-out: Spleen %IA/g, + 50 nmol cold): 4.99 %ID/g; tissue uptake at 1.5 h (stomach (empty), 124 pmol, H2009 bearing SCID mice, read-out: Stomach (empty) %IA/g): 8.26 %ID/g; tissue uptake at 24 h [3]: 3.84 %ID/g; tissue uptake at 72 h [3]: 2.65 %ID/g; tissue uptake at 1.5 h (stomach (empty), + 50 nmol non-labeled compound 10 min prior to activity, n = 2, read-out: Stomach (empty) %IA/g, + 50 nmol cold): 1.19 %ID/g; tissue uptake at 24 h (tumor (H2009 xenograft), H2009 bearing SCID mice, read-out: Tumor H2009 %IA/g): 2.42 %ID/g; tissue uptake at 1.5 h (tumor (H2009 xenograft), + 50 nmol non-labeled compound 10 min prior to activity, n = 2, read-out: Tumor H2009 %IA/g, + 50 nmol cold): 1.71 %ID/g; tissue to tissue ratio at 72 h (tumor / adrenals, H2009 bearing SCID mice, read-out: tumor/organ ratio, Adrenals): 4.5; tissue to tissue ratio at 24 h (tumor / blood, H2009 bearing SCID mice, read-out: tumor/organ ratio, Blood): 59.6; tissue to tissue ratio at 72 h (tumor / bone, H2009 bearing SCID mice, read-out: tumor/organ ratio, Bone): 3.4; tissue to tissue ratio at 24 h (tumor / heart (myocard), H2009 bearing SCID mice, read-out: tumor/organ ratio, Heart (myocard)): 15.2; tissue to tissue ratio at 72 h (tumor / large intestine (empty), H2009 bearing SCID mice, read-out: tumor/organ ratio, Large intestine (empty)): 3.6; tissue to tissue ratio at 24 h (tumor / liver, H2009 bearing SCID mice, read-out: tumor/organ ratio, Liver): 2.7; tissue to tissue ratio at 24 h (tumor / lung, H2009 bearing SCID mice, read-out: tumor/organ ratio, Lung): 2.1; tissue to tissue ratio at 72 h (tumor / muscle, H2009 bearing SCID mice, read-out: tumor/organ ratio, Muscle): 8.4; tissue to tissue ratio at 72 h (tumor / small intestine (empty), H2009 bearing SCID mice, read-out: tumor/organ ratio, Small intestine (empty)): 11.4; tissue to tissue ratio at 24 h (tumor / spleen, H2009 bearing SCID mice, read-out: tumor/organ ratio, Spleen): 1.4; tissue to tissue ratio at 72 h (tumor / stomach (empty), H2009 bearing SCID mice, read-out: tumor/organ ratio, Stomach (empty)): 0.8; tissue to tissue ratio at 1.5 h (tumor/adrenals, 124 pmol, H2009 bearing SCID mice, read-out: tumor/organ ratio, Adrenals): 8.9; tissue to tissue ratio at 24 h (tumor/adrenals, H2009 bearing SCID mice, read-out: tumor/organ ratio, Adrenals): 10.2; tissue to tissue ratio at 1.5 h (tumor/blood, 124 pmol, H2009 bearing SCID mice, read-out: tumor/organ ratio, Blood): 2.4; tissue to tissue ratio at 72 h (tumor/blood, H2009 bearing SCID mice, read-out: tumor/organ ratio, Blood): 67; tissue to tissue ratio at 1.5 h (tumor/bone, 124 pmol, H2009 bearing SCID mice, read-out: tumor/organ ratio, Bone): 1.8; tissue to tissue ratio at 24 h (tumor/bone, H2009 bearing SCID mice, read-out: tumor/organ ratio, Bone): 3.6; tissue to tissue ratio at 1.5 h (tumor/heart (myocard), 124 pmol, H2009 bearing SCID mice, read-out: tumor/organ ratio, Heart (myocard)): 5.9; tissue to tissue ratio at 72 h (tumor/heart (myocard), H2009 bearing SCID mice, read-out: tumor/organ ratio, Heart (myocard)): 12.2; tissue to tissue ratio at 1.5 h (tumor/large intestine (empty), 124 pmol, H2009 bearing SCID mice, read-out: tumor/organ ratio, Large intestine (empty)): 1.8; tissue to tissue ratio at 24 h (tumor/large intestine (empty), H2009 bearing SCID mice, read-out: tumor/organ ratio, Large intestine (empty)): 1.8; tissue to tissue ratio at 1.5 h (tumor/liver, 124 pmol, H2009 bearing SCID mice, read-out: tumor/organ ratio, Liver): 5.1; tissue to tissue ratio at 72 h (tumor/liver, H2009 bearing SCID mice, read-out: tumor/organ ratio, Liver): 2.4; tissue to tissue ratio at 1.5 h (tumor/lung, 124 pmol, H2009 bearing SCID mice, read-out: tumor/organ ratio, Lung): 1; tissue to tissue ratio at 72 h (tumor/lung, H2009 bearing SCID mice, read-out: tumor/organ ratio, Lung): 2.2; tissue to tissue ratio at 1.5 h (tumor/muscle, 124 pmol, H2009 bearing SCID mice, read-out: tumor/organ ratio, Muscle): 7.4; tissue to tissue ratio at 24 h (tumor/muscle, H2009 bearing SCID mice, read-out: tumor/organ ratio, Muscle): 9.5; tissue to tissue ratio at 1.5 h (tumor/pancreas, 124 pmol, H2009 bearing SCID mice, read-out: tumor/organ ratio, Pancreas): 14.3; tissue to tissue ratio at 24 h [4]: 18.4; tissue to tissue ratio at 72 h [4]: 14.9; tissue to tissue ratio at 1.5 h (tumor/small intestine (empty), 124 pmol, H2009 bearing SCID mice, read-out: tumor/organ ratio, Small intestine (empty)): 2.1; tissue to tissue ratio at 24 h (tumor/small intestine (empty), H2009 bearing SCID mice, read-out: tumor/organ ratio, Small intestine (empty)): 2.5; tissue to tissue ratio at 1.5 h (tumor/spleen, 124 pmol, H2009 bearing SCID mice, read-out: tumor/organ ratio, Spleen): 0.7; tissue to tissue ratio at 72 h (tumor/spleen, H2009 bearing SCID mice, read-out: tumor/organ ratio, Spleen): 1; tissue to tissue ratio at 1.5 h (tumor/stomach (empty), 124 pmol, H2009 bearing SCID mice, read-out: tumor/organ ratio, Stomach (empty)): 0.7; tissue to tissue ratio at 24 h (tumor/stomach (empty), H2009 bearing SCID mice, read-out: tumor/organ ratio, Stomach (empty)): 0.7
